The source of these data is patent US20120177664A1 (IMMUNAS PHARMA, published 2012).

What is called Kd is the equilibrium constant for the complex coming apart. Lower therefore signals higher affinity. The koff is the rate constant with which the complex falls apart. Read a low koff as a long-lived complex. For orientation: kon means the second-order rate constant of association. Low values mean slower complex formation, high ones faster complex formation.

First the molecules themselves.
B1: IR-112 antibody (antibody, mouse IgG2a, V domains shown)
VH: QVTLKESGPGILKPSQTLSLTCSFSGFSLSTSGMGVGWIRQPSGKGLEWLAHIWWDDDKYYNPSLKSQLTISKDTSRNQVFLKITSVDTADTATYYCARRSMITTNDYFDYWGQGTTLTVSS
VL: DVLMTQTPLSLPVSLGDQASISCRSSQSIVHSNGNTYLEWYLQKPGQSPKLLIYKVSNRFSGVPDRFSGSGSGTDFTLKISRVEAEDLGVYYCFQGSHVPPTFGGGTKLEIK
notes: mouse IgG2a
B2: IR-118 antibody (antibody, mouse IgG2a, V domains shown)
VH: QVQLKESGPGLVAPSQSLSITCTISGFSLTSYGVHWVRQPPGKGLEWLVVIWSDGSTTYNSALKSRLSISKDNSKSQLFLKMNSLQTDDTAMYYCARHSYRYGLMDYWGQGTSVTVSS
VL: DVVMTQTPLSLPVSLGDQASISCRSSQSLVHSNGNTYLHWYLQKPGQSPKLLIYKVSNRFSGVPDRFSGSGSGTDFTLKISRVEAEDLGVYFCSQSTHVPLTFGAGTKLELK
notes: mouse IgG2a
B3: IR-154 antibody (antibody, V domains shown)
VH: DVQLVESGGGLVQPGGSRKLSCAASGFSFSSFGMHWVRQAPEKGLEWVAYISSGRSTIYYADTVKGRFTISRDNPKNTLFLQMTSLRSEDTAMYYCARLRGNLDYAMDYWGQGTSVTVSS
VL: DVVMTQTPLSLPVSLGDQASISCRSSQSLVHSNGNTYLHWYLQKPGQSPKLLIYKVSNRFSGVPDRFSGSGSGTDFTLKISRVEAEDLGVYFCSQSTHVPFTFGSGTKLEIK
notes: mouse IgG2a
B4: IR-132 antibody (antibody, mouse IgG2b, V domains shown)
VH: DVQLVESGGGLVQPGGSRKLSCAASGFTFSSFGMHWVRQAPEKGLEWVAYISSGSSTIYYADTVKGRFTISRDNPKNTLFLQMTSLRSEDTAMYYCARDGNYVGWFAYWGQGTLVTVSA
VL: DVVMTQTPLSLPVSLGDQASISCRSSQSLVHSNGNTYLHWYLQKPGQSPKLLIYKVSNRFSGVPDRFSGSGSGTDFTLKISRVEAEDLGVYFCSQSTHVPLTFGAGTKLELK
notes: mouse IgG2b
B5: IR-117 antibody (antibody, mouse IgG2b, V domains shown)
VH: not shown
VL: DVVMTQTPLSLPVSLGDQASISCRSSQSLVHSNGNTYLHWYLQKPGQSPKLLIYKVSNRFSGVPDRFSGSGSGTDFTLKISRVEAEDLGVYFCSQSTHVPLTFGAGTKLELK
notes: mouse IgG2b
B6: IR-155 antibody (antibody, V domains shown)
VH: DVQLVESGGGLVQPGGSRKLSCAASGFTFSSFGMHWVRQAPEKGLEWVAYISSGSSTIYYADTVKGRFTISRDNPKNTLFLQMTSLRSEDTAMYYCARLDGYRGDYWGQGTTLTVSS
VL: DVVMTQTPLSLPVSLGDQASISCRSSQSLVHSNGNTYLHWYLQKPGQSPKLLIYKVSNRFSGVPDRFSGSGSGTDFTLKISRVEAEDLGVYFCSQSTHVPLTFGSGTKLEIK
notes: mouse IgG2a
B7: IR-139 antibody (antibody, mouse IgG2b, V domains shown)
VH: DVQLVESGGGLVQPGGSRKLSCAASGFTFSSFGMHWVRQAPEKGLEWVAYISSGSSTIYYADTVKGRFTISRDNPKNTLFLQMTSLRSEDTAMYYCARDEGYFDYWGQGTTLTVSS
VL: DVVMTQTPLSLPVSLGDQASISCRSSQSLVHSNGNTYLHWYLQKPGQSPKLLIYKVSNRFSGVPDRFSGSGSGTDFTLKISRVEAEDLGVYFCSQSTHVPLTFGAGTKLELK
notes: mouse IgG2b
B8: IR-150 antibody (antibody, mouse IgG2b, V domains shown)
VH: not shown
VL: DVVMTQTPLSLPVSLGDQASISCRSSQSLVHSNGNTYLHWYLQKPGQSPKLLIYKVSNRFSGVPDRFSGSGSGTDFTLKISRVEAEDLGVYFCSQSTHVPLTFGAGTKLELK
notes: mouse IgG2b
B9: IR-135 antibody (antibody, V domains shown)
VH: QVQLQQSGAELAKPGASVKMSCKASGYTFTSYWMHWVKQRPGQGLEWIGYINPSTGYTEYNQKFKDKATLTADKSSSTAYMQLSSLTSEDSAVYYCDYYGSSYGYFDVWGAGTTVTVSS
VL: DVVMTQTPLSLPVSLGDQASISCRSSQSLVHSNGNTYLHWYLQKPGQSPKLLIYKVSNRFSGVPDRFSGSGSGTDFTLKISRVEAEDLGVFFCSQSTHVPLTFGAGTKLELK
notes: mouse IgG2a

For this experiment, the target named is T1, A beta oligomer (synthetic A beta1-40, HCl form, 0.1 mg/ml in PBS, incubated at 37 degrees C for one hour) (UniProt P05067 672-711).
T1 construct: domain: A beta1-40; non-fibrous multimer of the peptide; also called A beta 1-40 oligomer
Nature of the experiment: SPR (Biacore 3000). As for the experimental part: The analysis was carried out by Surface Plasmon Resonance (SPR) using Biacore 3000 (GE Healthcare Sciences).
Turning to B1, binding was characterised by a dissociation constant (Kd) of 41.1 nM, the koff was 0.00376 s⁻¹ and the association rate constant (kon) was 91400 M⁻¹ s⁻¹.

In turn, B2 gave a Kd of 27.5 nM, a koff of 0.00153 s⁻¹ and a kon of 55700 M⁻¹ s⁻¹.

On to B3, for which binding was put at a Kd of 1050 nM, the koff came out at 0.41 s⁻¹ and the kon came out at 389000 M⁻¹ s⁻¹.

In the case of B4, the affinity, expressed as Kd, was 22.1 nM; the koff is 0.00517 s⁻¹; the kon was 234000 M⁻¹ s⁻¹.

B5 had a Kd of 921 nM, a koff of 0.0668 s⁻¹ and a kon of 72500 M⁻¹ s⁻¹.

In turn, B6 registered an equilibrium dissociation constant (Kd) of 1050 nM, a koff of 0.37 s⁻¹ and a kon of 351000 M⁻¹ s⁻¹.

B7 gave a Kd of 50.6 nM, a koff of 0.00165 s⁻¹ and a kon of 32600 M⁻¹ s⁻¹.

B8 had a Kd of 517 nM, a koff of 0.124 s⁻¹ and a kon of 240000 M⁻¹ s⁻¹.

Consider B9, for which the Kd turned out to be 1290 nM, the koff was 0.116 s⁻¹ and the kon was 89900 M⁻¹ s⁻¹.
